Measured values as given in patent publication US20240294626A1 (Novartis, published 2024).

T1: Recombinant marmoset IL-18 (marmoset, UniProt U3CWC9 37-190)
T1 sequence: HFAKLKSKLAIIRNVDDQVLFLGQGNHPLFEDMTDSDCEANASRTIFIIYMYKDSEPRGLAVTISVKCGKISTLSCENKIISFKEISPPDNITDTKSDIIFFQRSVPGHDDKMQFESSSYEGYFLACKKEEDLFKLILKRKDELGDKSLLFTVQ


Columns and labels:
[1] = biological target: T2, Recombinant marmoset IL-1β (marmoset, UniProt U3E018 117-268); assay: cell-based or functional assay
Recombinant human IL-1β [2] = biological target: T3, Recombinant human IL-1β (human, UniProt P01584 117-269); assay: cell-based or functional assay
Recombinant human IL-18 [3] = biological target: T4, Recombinant human IL-18 (human, UniProt Q14116 37-193); assay: SET, simultaneous target binding Assay B (both targets in serial dilutions in one mix)
T4 construct: also called huIL-18; hulL-18
Protocol: (§1) Assay B: The equilibration process (antibody/antigen mix) was performed with both targets in serial dilutions in one mix simultaneously (constant concentration of antibody 10 pM, highest antigen conc. see above). The same mix was then analyzed for its free antibody concentration on IL18 and IL-1β coated plates as described above.

[4] = biological target: T1, Recombinant marmoset IL-18; assay: cell-based or functional assay
Recombinant human IL-18 [5] = biological target: T4, Recombinant human IL-18; assay: cell-based or functional assay
Recombinant human IL-1β [6] = biological target: T3, Recombinant human IL-1β; assay: SET, simultaneous target binding Assay B (both targets in serial dilutions in one mix)
Protocol: as §1

[7] = biological target: T2, Recombinant marmoset IL-1β; assay: as above
Protocol: as §1

Row | IC50, inhibition of IL-6 production in human dermal fibroblasts stimulated with recombinant marmoset IL-1β (18 pM), Exp. C [1] [nM] | IC50, inhibition of IL-6 production in marmoset dermal fibroblasts stimulated with recombinant marmoset IL-1β (18 pM), Exp. A [1] [pM] | IC50, inhibition of IL-6 production in marmoset dermal fibroblasts stimulated with recombinant marmoset IL-1β (18 pM), Exp. B [1] [nM] | IC50, inhibition of IL-6 production in human PBMC stimulated with recombinant human IL-1β (60 pM) (Recombinant human IL-1β [2]) [nM] | IC50, inhibition of IL-6 production in human dermal fibroblasts stimulated with recombinant human IL-1β (6 pM) (Recombinant human IL-1β [2]) [pM] | IC50, inhibition of IFNγ production in human PBMC stimulated with recombinant marmoset IL-18 (1 nM) and human IL-12 (10 ng/ml) [4] [nM] | IC50, inhibition of IFNγ production in marmoset whole blood stimulated with recombinant marmoset IL-18 (0.3 nM) and human IL-12 (10 ng/ml) [4] [nM] | IC50, inhibition of IFNγ production in marmoset whole blood stimulated with recombinant marmoset IL-18 (3 nM) and human IL-12 (10 ng/ml) [4] [nM] | IC50, inhibition of IFNγ production in KG-1 cells stimulated with recombinant human IL-18 (3 nM) and human IL-12 (1 ng/ml) (Recombinant human IL-18 [5]) [nM] | IC50, inhibition of IFNγ production in human PBMC stimulated with recombinant human IL-18 (3 nM) and human IL-12 (1 ng/ml) (Recombinant human IL-18 [5]) [nM] | Binder | binding result (Recombinant human IL-18 [3]) | binding result (Recombinant human IL-1β [6]) | binding result [7]
1 | 0.114 | 95 | 0.138 | 0.29 | 31 |  |  |  |  |  | mAb2 (antibody, human IgG1, kappa, V domains shown, Human anti-IL-1β monoclonal antibody, kappa light chain; also called IL-1β antibody) VH: QVQLVESGGGVVQPGRSLRLSCAASGFTFSVYGMNWVRQAPGKGLEWVAIIWYDGDNQYYADSVKGRFTISRDNSKNTLYLQMNGLRAEDTAVYYCARDLRTGPFDYWGQGTLVTVSS VL: EIVLTQSPDFQSVTPKEKVTITCRASQSIGSSLHWYQQKPDQSPKLLIKYASQSFSGVPSRFSGSGSGTDFTLTINSLEAEDAAAYYCHQSSSLPFTFGPGTKVDIKR | no binding (tested: highest antigen conc. 5 nM) |  | 
2 |  |  |  |  |  | 6.6 | 4.7 | 181 | 0.035 | 0.78 | mAb1 (antibody, human IgG1, lambda, L234A L235A, V domains shown, Human anti-IL-18 monoclonal antibody, lambda light chain; also called IL-18 antibody) VH: EVQLVQSGAEVKKPGSSVKVSCKASGGTFKSYAISWVRQAPGQGLEWMGNIIPMTGQTYYAQKFQGRVTITADESTSTAYMELSSLRSEDTAVYYCARAAYHPLVFDNWGQGTLVTVSS VL: DIVLTQPPSVSGAPGQRVTISCSGSSSNIGNHYVNWYQQLPGTAPKLLIYRNNHRPSGVPDRFSGSKSGTSASLAITGLQSEDEADYYCQSWDYSGFSTVFGGGTKLTVLG |  | no binding (tested: highest antigen conc. 0.5 nM) | no binding (tested: highest antigen conc. 0.5 nM)
